This sample holds only a part of the variants without activity.
How the values were obtained:
[1] = test system: biotinyl-Ile-oxazolone; assay: self-aminoacylation, catalytic enhancement (BIO) (fold over background); higher = more active; k-Seq, kA / k0A0; sequences stand for … in GGGAAUGGAUCCACAUCUACGAAUUC…UUCACUGCAGACUUGACGAAGCUG
Outline: (§1)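 Mutagenized RNA pools with a 21-nt variable region (0.43 μM) were reacted with each biotinyl-aminoacyl-oxazolone at 2–1250 μM for 90 minutes at room temperature, in 50 μL HEPES/NaCl/KCl/MgCl2/CaCl2 buffer containing 5% acetonitrile at pH 6.9–7.0. RNA captured on streptavidin was quantified by triplicate qPCR and by Illumina sequencing. The fraction reacted for each sequence was fit to a pseudo-first-order model with bootstrapping, and catalytic enhancement is the median kA divided by the uncatalyzed rate, taken as the low-activity peak of a bimodal Gaussian fit.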

[2] = test system: biotinyl-Val-oxazolone; assay: self-aminoacylation, catalytic enhancement (BVO) (fold over background); higher = more active; k-Seq, kA / k0A0; sequences stand for … in GGGAAUGGAUCCACAUCUACGAAUUC…UUCACUGCAGACUUGACGAAGCUG
Outline: as §1

[3] = test system: biotinyl-Phe-oxazolone; assay: self-aminoacylation, catalytic enhancement (BFO) (fold over background); higher = more active; k-Seq, kA / k0A0; sequences stand for … in GGGAAUGGAUCCACAUCUACGAAUUC…UUCACUGCAGACUUGACGAAGCUG
Outline: as §1

[4] = test system: biotinyl-Met-oxazolone; assay: self-aminoacylation, catalytic enhancement (BMO) (fold over background); higher = more active; k-Seq, kA / k0A0; sequences stand for … in GGGAAUGGAUCCACAUCUACGAAUUC…UUCACUGCAGACUUGACGAAGCUG
Outline: as §1

[5] = test system: biotinyl-Leu-oxazolone; assay: self-aminoacylation, catalytic enhancement (BLO) (fold over background); higher = more active; k-Seq, kA / k0A0; sequences stand for … in GGGAAUGGAUCCACAUCUACGAAUUC…UUCACUGCAGACUUGACGAAGCUG
Outline: as §1

[6] = test system: biotinyl-Trp-oxazolone; assay: self-aminoacylation, catalytic enhancement (BWO) (fold over background); higher = more active; k-Seq, kA / k0A0; sequences stand for … in GGGAAUGGAUCCACAUCUACGAAUUC…UUCACUGCAGACUUGACGAAGCUG
Outline: as §1

Row | Sequence | self-aminoacylation [1] | self-aminoacylation [2] | self-aminoacylation [3] | self-aminoacylation [4] | self-aminoacylation [5] | self-aminoacylation [6]
1 | AUUCACCUAGGUCAACGGGUA [Fam2.2 aminoacylation ribozyme variant] | 1.41 | 1.08 | 0.801 | 1.12 | 1.29 | 1.83
2 | AUUCACCUAGGUCAACGGGUC [Fam2.2 aminoacylation ribozyme variant] | 0.899 | 1.07 | 0.507 | 0.915 | 0.807 | 0.902
3 | AUUCACCUAGGUCAAGGGGUG [Fam2.2 aminoacylation ribozyme variant] | 1.37 | 1.3 | 4.67 | 1.43 | 1.41 | 1.3
4 | AUUCACCUAGGUCAAUGGGUG [Fam2.2 aminoacylation ribozyme variant] | 1.42 | 1.38 | 6.93 | 1.75 | 2.23 | 1.65
5 | AUUCACCUAGGUCACCGCGUG [Fam2.2 aminoacylation ribozyme variant] | 7.2 | 6.86 | 85.2 | 12.6 | 18.1 | 10.9
6 | AUUCACCUAGGUCACCGGGGG [Fam2.2 aminoacylation ribozyme variant] | 3.62 | 3.51 | 21.4 | 3.37 | 3.12 | 4.38
7 | AUUCACCUAGGUCACCGUGUG [Fam2.2 aminoacylation ribozyme variant] | 1.13 | 1.33 | 4.55 | 1.33 | 1.48 | 1.24
8 | AUUCACCUAGGUCAGCCGGUG [Fam2.2 aminoacylation ribozyme variant] | 5.17 | 5.3 | 61.6 | 7.35 | 11.3 | 6.47
9 | AUUCACCUAGGUCAGCGAGUG [Fam2.2 aminoacylation ribozyme variant] | 3.44 | 3.34 | 25.3 | 4.93 | 6.37 | 5.84
10 | AUUCACCUAGGUCAUCAGCUG [Fam2.2 aminoacylation ribozyme variant] | 0.757 | 0.757 | 0.631 | 0.806 | 0.804 | 0.477
11 | AUUCACCUAGGUCAUCAGGCG [Fam2.2 aminoacylation ribozyme variant] | 1.26 | 1.32 | 1.02 | 1.47 | 1.54 | 1.87
12 | AUUCACCUAGGUCAUCAGUUG [Fam2.2 aminoacylation ribozyme variant] | 0.954 | 0.939 | 0.935 | 0.88 | 0.942 | 0.698
13 | AUUCACCUAGGUCAUCCGGCG [Fam2.2 aminoacylation ribozyme variant] | 3.31 | 4.01 | 15.3 | 3.55 | 3.69 | 4.29
14 | AUUCACCUAGGUCAUCCGGUG [Fam2.2 aminoacylation ribozyme variant] | 4.67 | 4.69 | 44.9 | 6.35 | 8.38 | 6.3
15 | AUUCACCUAGGUCAUCGAGGG [Fam2.2 aminoacylation ribozyme variant] | 1.58 | 1.43 | 3.09 | 2.19 | 2.89 | 1.1
16 | AUUCACCUAGGUCAUCGCGUG [Fam2.2 aminoacylation ribozyme variant] | 7.1 | 7.35 | 100 | 13 | 17.4 | 11.5
17 | AUUCACCUAGGUCAUCGGCCG [Fam2.2 aminoacylation ribozyme variant] | 3.35 | 3.45 | 16.6 | 4.04 | 4.25 | 5.29
18 | AUUCACCUAGGUCAUCGGCUA [Fam2.2 aminoacylation ribozyme variant] | 2.67 | 2.62 | 11.2 | 2.57 | 2.98 | 2.62
19 | AUUCACCUAGGUCAUCGGCUC [Fam2.2 aminoacylation ribozyme variant] | 2.5 | 2.22 | 5.2 | 2.14 | 2.45 | 2.47
20 | AUUCACCUAGGUCAUCGGGAA [Fam2.2 aminoacylation ribozyme variant] | 4.54 | 4.14 | 26 | 5.51 | 9.17 | 6.07
21 | AUUCACCUAGGUCAUCGUAUG [Fam2.2 aminoacylation ribozyme variant] | 0.593 | 0.737 | 0.528 | 0.503 | 0.553 | 0.207
22 | AUUCACCUAGGUCAUCGUGUG [Fam2.2 aminoacylation ribozyme variant] | 0.867 | 0.932 | 2.56 | 0.951 | 1.07 | 0.654
23 | AUUCACCUAGGUCAUCUGCUG [Fam2.2 aminoacylation ribozyme variant] | 0.819 | 0.81 | 2.81 | 0.724 | 0.964 | 0.391
24 | AUUCACCUAGGUCAUCUGUUG [Fam2.2 aminoacylation ribozyme variant] | 0.795 | 0.693 | 0.429 | 0.564 | 0.618 | 0.373
25 | AUUCACCUAGGUCAUGGGGUA [Fam2.2 aminoacylation ribozyme variant] | 1.96 | 1.83 | 1 | 2.13 | 1.88 | 1.56
26 | AUUCACCUAGGUCAUUGGGCG [Fam2.2 aminoacylation ribozyme variant] | 2.58 | 2.66 | 10.6 | 2.49 | 3.36 | 3.16

Row | Sequence | self-aminoacylation [1] | self-aminoacylation [2] | self-aminoacylation [3] | self-aminoacylation [4] | self-aminoacylation [5] | self-aminoacylation [6]
27 | AUUCACCUAGGUCAUUGGGUC [Fam2.2 aminoacylation ribozyme variant] | 0.922 | 0.867 | 1.09 | 0.808 | 0.89 | 0.734
28 | AUUCACCUAGGUCAUUGGGUU [Fam2.2 aminoacylation ribozyme variant] | 1.23 | 1.19 | 5.73 | 1.34 | 1.15 | 1.52
29 | AUUCACCUAGGUCAUUGUGUG [Fam2.2 aminoacylation ribozyme variant] | 0.871 | 0.835 | 0.805 | 0.898 | 1.03 | 0.463
30 | AUUCACCUAGGUCCUCGGGUC [Fam2.2 aminoacylation ribozyme variant] | 1.21 | 1.34 | 4.38 | 1.51 | 1.16 | 0.77
31 | AUUCACCUAGGUCCUCUGGUG [Fam2.2 aminoacylation ribozyme variant] | 2.57 | 2.58 | 31.1 | 4.3 | 5.9 | 4.56
32 | AUUCACCUAGGUCCUGGGGUG [Fam2.2 aminoacylation ribozyme variant] | 4.6 | 4.05 | 57.2 | 7.35 | 9.12 | 7.11
33 | AUUCACCUAGGUCGUCCGGUG [Fam2.2 aminoacylation ribozyme variant] | 2.52 | 2.35 | 14.4 | 3.34 | 3.89 | 2.39
34 | AUUCACCUAGGUCGUCGGGUG [Fam2.2 aminoacylation ribozyme variant] | 1.61 | 1.77 | 9.32 | 1.84 | 2.09 | 1.66
35 | AUUCACCUAGGUCUACGGGUG [Fam2.2 aminoacylation ribozyme variant] | 3.16 | 3.11 | 27.6 | 4.62 | 4.92 | 4.07
36 | AUUCACCUAGGUCUUCGCGUG [Fam2.2 aminoacylation ribozyme variant] | 2.95 | 3.96 | 16.6 | 4.3 | 4.5 | 3.32
37 | AUUCACCUAGGUCUUCGGCUG [Fam2.2 aminoacylation ribozyme variant] | 2.12 | 1.87 | 6.94 | 1.8 | 2.59 | 1.46
38 | AUUCACCUAGGUCUUCGGGUA [Fam2.2 aminoacylation ribozyme variant] | 3.31 | 3.6 | 17.4 | 3.75 | 3.22 | 3.79
39 | AUUCACCUAGGUGAUCGGGGG [Fam2.2 aminoacylation ribozyme variant] | 5.84 | 4.72 | 21.6 | 4.53 | 5.33 | 7.47
40 | AUUCACCUAGGUGAUUGGGUG [Fam2.2 aminoacylation ribozyme variant] | 2.17 | 2.41 | 13.2 | 2.68 | 3.06 | 2.96
41 | AUUCACCUAGGUGGUCGGGUG [Fam2.2 aminoacylation ribozyme variant] | 2.49 | 2.77 | 18.3 | 2.41 | 4.09 | 3.42
42 | AUUCACCUAGGUUGUCGGGUG [Fam2.2 aminoacylation ribozyme variant] | 3.53 | 3.2 | 27.3 | 4.89 | 5.86 | 4.65
43 | AUUCACCUAGUCCAUCGGGUG [Fam2.2 aminoacylation ribozyme variant] | 3.54 | 3.82 | 40.5 | 6.16 | 6.98 | 6.38
44 | AUUCACCUAGUUCAUCAGGUG [Fam2.2 aminoacylation ribozyme variant] | 0.872 | 0.934 | 0.467 | 0.796 | 0.986 | 0.893
45 | AUUCACCUAGUUCAUCCGGUG [Fam2.2 aminoacylation ribozyme variant] | 3.1 | 2.52 | 21.9 | 3.23 | 3.89 | 3.54
46 | AUUCACCUAGUUCAUCGUGUG [Fam2.2 aminoacylation ribozyme variant] | 0.937 | 1.11 | 4.05 | 1.2 | 1.25 | 1.1
47 | AUUCACCUAUAUCAUCGGGUG [Fam2.2 aminoacylation ribozyme variant] | 2.84 | 2.56 | 32.7 | 4.73 | 6.53 | 4.4
48 | AUUCACCUAUGCCAUCGGGUG [Fam2.2 aminoacylation ribozyme variant] | 1.5 | 1.98 | 18.9 | 2.85 | 3.21 | 3.42
49 | AUUCACCUAUGGCAUCGGGUG [Fam2.2 aminoacylation ribozyme variant] | 1.96 | 1.94 | 11.9 | 2.41 | 2.84 | 2.25
50 | AUUCACCUAUGUCAACGGGUG [Fam2.2 aminoacylation ribozyme variant] | 1.83 | 2.01 | 16.8 | 2.83 | 3.35 | 2.52
51 | AUUCACCUAUGUCACCGGGUG [Fam2.2 aminoacylation ribozyme variant] | 2.34 | 2.27 | 19 | 3.22 | 4.89 | 3.43

Source: the supplement of paper PMC9233669
